In US20260152543A1 (KRIYA THERAPEUTICS, published 2026):
Blank lines part the entries; values can stand above or below the molecule they belong to.

Assays:
C4b (Complement Tech) [1] = biological target: C4b (Complement Tech) (UniProt P0C0L4); assay: BLI (GatorPrime), ratio of KD to that of rhCR1 for C4b
C4b (Complement Tech) [2] = biological target: C4b (Complement Tech) (UniProt P0C0L4); assay: SPR (Biacore 8K), His-tagged fusion protein captured by anti-His on CM5, C4b analyte 62.5-2000 nM, steady state affinity
C4b (Complement Tech) [3] = biological target: C4b (Complement Tech) (UniProt P0C0L4); assay: BLI (GatorPrime), His-tagged protein on Ni-NTA probe, ligand in 7-point dilution series
C4b (Complement Tech) [4] = biological target: C4b (Complement Tech) (UniProt P0C0L4); assay: SPR (Biacore 8K), His-tagged receptor captured by anti-His on CM5, C4b analyte 31.25-2000 nM, steady state affinity
iC3b (Complement Tech) [5] = biological target: T1, iC3b (Complement Tech) (UniProt P01024 23-667; P01024 749-1303; P01024 1321-1663, limits assumed); assay: BLI (GatorPrime), His-tagged protein on Ni-NTA probe, ligand in 7-point dilution series
T1 construct: iC3b is a multi-chain fragment of C3
Protocol: The binding kinetics of CR2-CR1 fusion proteins, human CR1, and human CR2 to their respective ligands were determined using biolayer interferometry (BLI) with a GatorPrime instrument (Gator Bio). Recombinant His-tagged human CR1 (R&D Systems), human CR2 (R&D Systems), or CR2-CR1 fusion proteins (GenScript) were immobilized onto Ni-NTA probes, and the response signals from the protein-loaded probes binding to C3d, iC3b, C3b, or C4b (Complement Tech) in a 7-point dilution series were measured for a 300 second association step, followed by a 300 second dissociation step in assay buffer. To reduce assay background/noise due to non-specific complement protein binding, a double reference was applied using a 0 nM ligand condition (Sample or Reference Probe Blank) and a series of Ni-NTA probes not loaded with protein (Reference Probe) according to the following equation: Sample Response=(Sample Signal−Reference Probe Signal)−(Sample Blank Signal−Reference Probe Blank Signal). The binding affinity constant, KD, and association/dissociation rate constants, kₒₙ/koff, for all binding interactions were calculated using the GatorOne software (Gator Bio).

iC3b (Complement Tech) [6] = biological target: T1, iC3b (Complement Tech); assay: SPR (Biacore 8K), His-tagged receptor captured by anti-His on CM5, iC3b analyte 19.5-1250 nM, steady state affinity
Protocol: The binding of recombinant human CR1, recombinant human CR2, and recombinant CR2CR1 #1 (SEQ ID NO: 22), and recombinant CR2CR1 #7 (SEQ ID NO: 12) protein to their respective ligands C3b, C4b, iC3b, and/or C3d was analyzed using a Biacore 8K SPR system (Cytiva). Histidine-tagged complement receptors and fusion proteins were immobilized onto Series S Sensor Chip CM5 using a His Antibody Capture Kit, with capture levels of 60-470 RU. C3b, C4b, iC3b, and C3d were prepared in 1×HBS-EP buffer (10 mM HEPES, 150 mM NaCl, 3 mM EDTA, and 0.05% v/v Surfactant P20), pH 7.4, at concentrations ranging from 3-16000 nM, and the analytes were injected at a flow rate of 30 μL/min. Binding at 25° C. was monitored for 150 seconds, followed by a dissociation phase of 300 seconds. Chip sensors were regenerated for 60 seconds with 10 mM glycine-HCl buffer, pH 1.5. The data were processed and analyzed with Biacore Insight Evaluation Software; a 1:1 binding model (C3b analyte) or steady state affinity (C4b, iC3b, C3d analytes) was used to calculate the apparent KD value and other kinetic parameters.

C4b (Complement Tech), sequence (P0C0L4 20-1744): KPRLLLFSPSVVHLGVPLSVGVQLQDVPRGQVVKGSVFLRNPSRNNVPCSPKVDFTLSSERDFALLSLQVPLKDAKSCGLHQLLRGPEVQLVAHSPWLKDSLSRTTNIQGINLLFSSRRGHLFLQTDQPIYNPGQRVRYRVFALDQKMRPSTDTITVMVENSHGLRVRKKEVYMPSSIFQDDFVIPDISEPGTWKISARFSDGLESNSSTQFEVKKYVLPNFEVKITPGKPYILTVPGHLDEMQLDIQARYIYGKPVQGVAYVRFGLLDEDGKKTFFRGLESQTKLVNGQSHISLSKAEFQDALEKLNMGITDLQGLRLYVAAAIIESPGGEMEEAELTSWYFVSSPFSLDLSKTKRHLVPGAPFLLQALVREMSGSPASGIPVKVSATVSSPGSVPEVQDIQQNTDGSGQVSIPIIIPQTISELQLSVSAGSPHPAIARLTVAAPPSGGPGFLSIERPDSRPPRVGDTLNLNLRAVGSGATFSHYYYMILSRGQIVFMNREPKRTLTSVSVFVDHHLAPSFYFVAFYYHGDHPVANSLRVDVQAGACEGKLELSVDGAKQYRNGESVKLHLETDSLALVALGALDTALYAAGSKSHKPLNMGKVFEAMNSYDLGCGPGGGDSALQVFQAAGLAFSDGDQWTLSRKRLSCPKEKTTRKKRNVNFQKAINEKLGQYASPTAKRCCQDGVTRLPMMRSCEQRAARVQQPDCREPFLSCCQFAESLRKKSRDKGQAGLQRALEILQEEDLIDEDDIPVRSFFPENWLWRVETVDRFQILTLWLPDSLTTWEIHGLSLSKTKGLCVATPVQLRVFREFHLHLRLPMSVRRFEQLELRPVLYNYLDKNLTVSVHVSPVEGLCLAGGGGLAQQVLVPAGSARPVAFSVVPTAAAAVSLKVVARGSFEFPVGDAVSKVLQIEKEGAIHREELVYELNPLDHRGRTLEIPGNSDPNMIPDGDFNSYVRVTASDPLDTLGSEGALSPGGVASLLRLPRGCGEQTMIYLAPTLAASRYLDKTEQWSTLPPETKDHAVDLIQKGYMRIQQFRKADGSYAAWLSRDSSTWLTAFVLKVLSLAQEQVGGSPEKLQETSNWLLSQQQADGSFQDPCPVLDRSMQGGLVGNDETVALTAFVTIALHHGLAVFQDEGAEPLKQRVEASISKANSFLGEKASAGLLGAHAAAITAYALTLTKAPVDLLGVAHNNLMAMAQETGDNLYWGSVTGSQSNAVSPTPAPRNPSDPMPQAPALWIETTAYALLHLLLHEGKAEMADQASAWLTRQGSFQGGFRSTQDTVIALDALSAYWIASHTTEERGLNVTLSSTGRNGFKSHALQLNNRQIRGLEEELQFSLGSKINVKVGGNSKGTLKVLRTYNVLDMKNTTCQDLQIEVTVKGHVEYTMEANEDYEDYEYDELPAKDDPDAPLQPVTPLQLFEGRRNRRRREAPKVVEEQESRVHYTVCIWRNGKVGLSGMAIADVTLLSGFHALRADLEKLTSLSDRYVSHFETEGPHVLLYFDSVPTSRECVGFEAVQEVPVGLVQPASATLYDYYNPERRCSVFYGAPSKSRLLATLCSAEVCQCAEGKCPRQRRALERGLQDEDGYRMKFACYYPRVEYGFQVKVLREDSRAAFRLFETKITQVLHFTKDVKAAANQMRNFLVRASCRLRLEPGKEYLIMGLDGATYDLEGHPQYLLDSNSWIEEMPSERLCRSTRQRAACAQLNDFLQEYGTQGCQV
T1 sequence (P01024 23-667 limits assumed, chain 1 of 3): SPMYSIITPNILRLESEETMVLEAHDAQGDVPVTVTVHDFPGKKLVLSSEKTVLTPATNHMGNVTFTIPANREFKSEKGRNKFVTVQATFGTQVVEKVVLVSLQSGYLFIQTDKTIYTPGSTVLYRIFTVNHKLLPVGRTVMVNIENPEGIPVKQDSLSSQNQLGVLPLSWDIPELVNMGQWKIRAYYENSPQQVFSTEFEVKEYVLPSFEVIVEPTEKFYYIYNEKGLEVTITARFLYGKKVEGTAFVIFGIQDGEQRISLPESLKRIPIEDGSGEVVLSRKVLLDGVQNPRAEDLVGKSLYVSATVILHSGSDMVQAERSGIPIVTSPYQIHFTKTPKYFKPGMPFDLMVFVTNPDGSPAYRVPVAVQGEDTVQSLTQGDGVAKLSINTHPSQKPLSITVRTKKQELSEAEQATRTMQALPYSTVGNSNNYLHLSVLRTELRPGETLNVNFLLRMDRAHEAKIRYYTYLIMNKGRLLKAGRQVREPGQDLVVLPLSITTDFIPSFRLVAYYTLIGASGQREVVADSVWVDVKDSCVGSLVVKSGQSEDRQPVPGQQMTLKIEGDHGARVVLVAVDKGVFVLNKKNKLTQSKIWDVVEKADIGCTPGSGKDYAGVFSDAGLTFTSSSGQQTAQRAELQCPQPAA
T1 sequence (P01024 749-1303 limits assumed, chain 2 of 3): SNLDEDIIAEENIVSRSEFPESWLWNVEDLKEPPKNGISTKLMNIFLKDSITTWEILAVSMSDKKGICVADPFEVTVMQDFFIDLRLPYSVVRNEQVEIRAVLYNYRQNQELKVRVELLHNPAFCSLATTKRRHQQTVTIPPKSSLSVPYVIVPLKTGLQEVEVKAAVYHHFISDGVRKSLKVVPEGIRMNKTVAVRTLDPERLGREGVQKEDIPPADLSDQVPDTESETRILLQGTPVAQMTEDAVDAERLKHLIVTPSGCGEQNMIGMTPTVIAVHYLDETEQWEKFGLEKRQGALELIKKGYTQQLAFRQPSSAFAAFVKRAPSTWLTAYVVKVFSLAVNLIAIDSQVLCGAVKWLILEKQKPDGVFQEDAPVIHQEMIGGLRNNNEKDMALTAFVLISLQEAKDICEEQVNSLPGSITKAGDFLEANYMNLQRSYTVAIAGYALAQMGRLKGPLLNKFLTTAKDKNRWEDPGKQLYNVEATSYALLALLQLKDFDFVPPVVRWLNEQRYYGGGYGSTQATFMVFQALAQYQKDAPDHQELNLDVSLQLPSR
T1 sequence (P01024 1321-1663 limits assumed, chain 3 of 3): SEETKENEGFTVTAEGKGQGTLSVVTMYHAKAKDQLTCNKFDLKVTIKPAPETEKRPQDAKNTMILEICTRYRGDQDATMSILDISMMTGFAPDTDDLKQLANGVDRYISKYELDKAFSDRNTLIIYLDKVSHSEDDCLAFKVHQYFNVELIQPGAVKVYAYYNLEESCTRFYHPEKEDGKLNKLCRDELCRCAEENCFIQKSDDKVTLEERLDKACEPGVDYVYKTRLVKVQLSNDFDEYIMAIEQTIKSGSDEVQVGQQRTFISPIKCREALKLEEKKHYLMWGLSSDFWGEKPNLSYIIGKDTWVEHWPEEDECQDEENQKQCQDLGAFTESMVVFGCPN

Molecule: Recombinant His-tagged human CR1 (R&D Systems) (from UniProt P17927 42-1971) (receptor)
- Kd (C4b (Complement Tech) [3]): 13.2 nM
- koff (C4b (Complement Tech) [3]): 0.000586 s⁻¹
- kon (C4b (Complement Tech) [3]): 44300 M⁻¹ s⁻¹
- Kd (C4b (Complement Tech) [4]): 3010 nM

B1: Recombinant His-tagged human CR2 (R&D Systems) (receptor, UniProt P20023 21-971, looked up)
chain: ISCGSPPPILNGRISYYSTPIAVGTVIRYSCSGTFRLIGEKSLLCITKDKVDGTWDKPAPKCEYFNKYSSCPEPIVPGGYKIRGSTPYRHGDSVTFACKTNFSMNGNKSVWCQANNMWGPTRLPTCVSVFPLECPALPMIHNGHHTSENVGSIAPGLSVTYSCESGYLLVGEKIINCLSSGKWSAVPPTCEEARCKSLGRFPNGKVKEPPILRVGVTANFFCDEGYRLQGPPSSRCVIAGQGVAWTKMPVCEEIFCPSPPPILNGRHIGNSLANVSYGSIVTYTCDPDPEEGVNFILIGESTLRCTVDSQKTGTWSGPAPRCELSTSAVQCPHPQILRGRMVSGQKDRYTYNDTVIFACMFGFTLKGSKQIRCNAQGTWEPSAPVCEKECQAPPNILNGQKEDRHMVRFDPGTSIKYSCNPGYVLVGEESIQCTSEGVWTPPVPQCKVAACEATGRQLLTKPQHQFVRPDVNSSCGEGYKLSGSVYQECQGTIPWFMEIRLCKEITCPPPPVIYNGAHTGSSLEDFPYGTTVTYTCNPGPERGVEFSLIGESTIRCTSNDQERGTWSGPAPLCKLSLLAVQCSHVHIANGYKISGKEAPYFYNDTVTFKCYSGFTLKGSSQIRCKADNTWDPEIPVCEKETCQHVRQSLQELPAGSRVELVNTSCQDGYQLTGHAYQMCQDAENGIWFKKIPLCKVIHCHPPPVIVNGKHTGMMAENFLYGNEVSYECDQGFYLLGEKKLQCRSDSKGHGSWSGPSPQCLRSPPVTRCPNPEVKHGYKLNKTHSAYSHNDIVYVDCNPGFIMNGSRVIRCHTDNTWVPGVPTCIKKAFIGCPPPPKTPNGNHTGGNIARFSPGMSILYSCDQGYLLVGEALLLCTHEGTWSQPAPHCKEVNCSSPADMDGIQKGLEPRKMYQYGAVVTLECEDGYMLEGSPQSQCQSDHQWNPPLAVCRSR
notes: Bought protein; also called rhCR2; hCR2; not shown: His tag
- Kd (iC3b (Complement Tech) [5]): 6.51 nM
- koff (iC3b (Complement Tech) [5]): 0.000965 s⁻¹
- kon (iC3b (Complement Tech) [5]): 148000 M⁻¹ s⁻¹
- Kd (iC3b (Complement Tech) [6]): 439 nM

Second part, the molecule after the results:

- KD vs. hCR1 KD (X (fold of hCR1 KD)) (C4b (Complement Tech) [1]): 0.94
- Kd (C4b (Complement Tech) [2]): 21100 nM
- Kd (C4b (Complement Tech) [3]): 12.4 nM
- koff (C4b (Complement Tech) [3]): 0.000694 s⁻¹
- kon (C4b (Complement Tech) [3]): 56000 M⁻¹ s⁻¹
Molecule: recombinant CR2CR1 #1 (CR2-CR1 fusion protein, CR2 SCR1-4 fused to CR1 SCR1-10), His-tagged

- KD vs. hCR1 KD (X (fold of hCR1 KD)) (C4b (Complement Tech) [1]): 0.8
- Kd (C4b (Complement Tech) [3]): 10.5 nM
- koff (C4b (Complement Tech) [3]): 0.000663 s⁻¹
- kon (C4b (Complement Tech) [3]): 63300 M⁻¹ s⁻¹
Molecule: recombinant CR2CR1 #7 (CR2-CR1 fusion protein, CR2 SCR1-4 fused to CR1 SCR1-4, 7-11, 14-17), His-tagged
